This note sets out measurements from IntAct's records for PubMed 19628817.

B1: Succinate dehydrogenase assembly factor 2, mitochondrial (Homo sapiens), Q9NX18 (parent)
chain: MAVSTVFSTSSLMLALSRHSLLSPLLSVTSFRRFYRGDSPTDSQKDMIEIPLPPWQERTDESIETKRARLLYESRKRGMLENCILLSLFAKEHLQHMTEKQLNLYDRLINEPSNDWDIYYWATEAKPAPEIFENEVMALLRDFAKNKNKEQRLRAPDLEYLFEKPR

In the assay the parent is B1. Particulars: with sdha_human SDHA.
In the case of G78R, the “effect of a mutation on the interaction” value is recorded as “disrupting interaction strength”.
